Test results as given in PMC12915131, “Balanced Expression of the Diiron Oxygenase BioE Is Essential for Biotin Homeostasis in Elizabethkingia meningoseptica” (Advanced Science, 2025).

Experiments:
[1] = molecular target: Elizabethkingia meningoseptica BioE (Elizabethkingia meningoseptica); assay: SEC; Superdex 75 (Increase) column, 20 mM Tris-HCl pH 8.0, 300 mM NaCl; oligomeric state judged from retention volume
[2] = molecular target: Chlamydia psittaci BioE (Chlamydia psittaci); assay: SPR; […], single-cycle kinetics, 1:1 Langmuir fit; […]

stearoyl-ACP (E. coli acyl carrier protein carrying a C18 acyl group), sequence (P0A6A8 2-78): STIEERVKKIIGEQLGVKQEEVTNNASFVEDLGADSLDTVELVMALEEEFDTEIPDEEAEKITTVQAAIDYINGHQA

stoichiometry N [1] | Substance | Kd [2]
2 | Elizabethkingia meningoseptica BioE (enzyme) | 
 | stearoyl-ACP (E. coli acyl carrier protein carrying a C18 acyl group) (from UniProt P0A6A8 2-78) (natural protein) | 203 nM
